In article doi:10.1101/2024.10.29.620959 one finds stoichiometry N data, which are given here for 2 substances.

Assay [1] concerns the target FadD5(1-448), N-terminal domain construct of Mycobacterium tuberculosis FadD5 (Mycobacterium tuberculosis H37Rv). Kind of assay: SEC-MALS.
The target in assay [2] is Mycobacterium tuberculosis FadD5 (fatty acyl-CoA synthetase, Rv0166), full length (Mycobacterium tuberculosis H37Rv). Nature of the assay: native gel or EMSA.
The target is the same in assay [3]. Nature of the assay: SAXS.
Assay [4] shares this target. Kind of assay: SEC-MALS. (In general: SEC sorts molecules by how far they enter the pores of the column.)

A word on the stoichiometry N: it is the number of molecules, sites or subunits per partner or assembly. Substance “FadD5(1-448), N-terminal domain construct of Mycobacterium tuberculosis FadD5 (domain or fragment)” came in with a stoichiometry N in assay [1] of 2.

Take “Mycobacterium tuberculosis FadD5 (fatty acyl-CoA synthetase, Rv0166), full length (enzyme)”: the stoichiometry N in assay [2], in assay [3] and in assay [4] was 2 in each case.
